{"source": "the nanobody polyreactivity screen of Harvey et al. (2022)", "data": [{"assay": "yeast display, Sf9 membrane polyspecificity reagent, FACS + sequencing; frameworks hold sequencing errors", "outline": "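In a synthetic yeast display library (Saccharomyces cerevisiae BJ5465), nanobody expression was induced with galactose for 36–48 hours. FACS gates were set low and high (top ~1%) using anti-HA fluorescence for expression and streptavidin fluorescence for binding of the Sf9 membrane reagent. Each polyreactivity label is drawn from the gate of origin.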", "values": [{"sequence": "QVQLVESGGGLVQAGGSLRLSCAASGFIFATYTMGWYRQAPGKERELVAAITWRGGSTYYADTVKGRFPISRDNAKNTVYLQMNSLKPEDTAVYYCAAQDVNSYRYVEDVYCGQGTQVTVSS", "polyreactivity (PSR sort gate)": "low polyreactivity"}, {"sequence": "QVQLVESGGGLVQAGGSLRLSCAASGFIFAWNAMGWYRQAPGKERELVASISSGGGSTYYADSVKGRFTISRDNAKNTVYLQMNSLKPEDTAVYYCAASYAYLRGLHYYKYDSWGQGTQVTVSS", "polyreactivity (PSR sort gate)": "low polyreactivity"}, {"sequence": "QVQLVESGGGLVQAGGSLRLSCAASGFIFAWYAMGWYRQAPGKERELVARISRGGSTYYADSVKGRFTISRDNAKNTVYLHMNSLKPEYTAVYYCTAGAAYTYTRYDYWGQGTQVTVSS", "polyreactivity (PSR sort gate)": "high polyreactivity"}, {"sequence": "QVQLVESGGGLVQAGGSLRLSCAASGFIFAWYTMGWYRQAPGKERELVAAISANGGNTYYADSVKGRFTISRDNAKNTVYLQMNSLKPEDTAVYYCAALYKYSSSFDYWGQGTQVTVSS", "polyreactivity (PSR sort gate)": "high polyreactivity"}, {"sequence": "QVQLVESGGGLVQAGGSLRLSCAASGFIFAYNAMGWYRQAPGKERELDAAISRSGGSTRYADSVKGRFTISRDNAKNTVYLQMNSLKPEDTAVYYCNVSRYGYGVGRGLYIYDYWGQGTQVTVSS", "polyreactivity (PSR sort gate)": "high polyreactivity"}, {"sequence": "QVQLVESGGGLVQAGGSLRLSCAASGFIFAYNAMGWYRQAPGKERELVAAISWSGGSTYYADSVKGRFTISRDNAKNTVYLQMNSLKPEYTAVYYCNAKYLGRRWDGNYNYWGQGTQVTVSS", "polyreactivity (PSR sort gate)": "high polyreactivity"}, {"sequence": "QVQLVESGGGLVQAGGSLRLSCAASGFIFAYNIIGWSRHAPGTERELVADISGTGSTNYADSVKGRFTISRDNAKNTVYLQMNSLKPEDTAVYYCAAAKFDVSFWLYFWGQGTQVTVSS", "polyreactivity (PSR sort gate)": "low polyreactivity"}, {"sequence": "QVQLVESGGGLVQAGGSLRLSCAASGFIFAYYAMGWYIQAPGKERELVAAISLSGARTYYADSVKGRFTISRDTAKNTVYLQMNSLKPEDTAVYYCAATPWSYEYYYWGQGTQVTVSS", "polyreactivity (PSR sort gate)": "low polyreactivity"}, {"sequence": "QVQLVESGGGLVQAGGSLRLSCAASGFIFAYYAMGWYRQAPGKERELVAGINRTGSTNYADSVKGRFSISRDNAKNTVYLQMNSLKPEDTAVYYCAARGYRSGGGYNYWGQGTQVTVSS", "polyreactivity (PSR sort gate)": "high polyreactivity"}, {"sequence": "QVQLVESGGGLVQAGGSLRLSCAASGFIFDANAMGWYRQAPGKERELVAAISRRGGRTYYADSVKGRFTISRDNAKNTVYLQMNSLKPEDTAVYYCAADWPDASRYGGGYWGQGTQVTVSS", "polyreactivity (PSR sort gate)": "high polyreactivity"}, {"sequence": "QVQLVESGGGLVQAGGSLRLSCAASGFIFDDNTMGWYRQAPGKERELVAAISYSAGSTYYADSVKGRFTISRDNAKNTVYLQMNSLKPEDTAVYYCNKDAASWDYYGGNDYWGQGTQVTVSS", "polyreactivity (PSR sort gate)": "low polyreactivity"}, {"sequence": "QVQLVESGGGLVQAGGSLRLSCAASGFIFDLYAMGWYRQAPGKERELVAAITTSGGTTYYADSVKGRFTISRDNAKNTVYLQMNSLKPEDTAVYYCAARRYSWYYYWGQGTQVTVSS", "polyreactivity (PSR sort gate)": "high polyreactivity"}, {"sequence": "QVQLVESGGGLVQAGGSLRLSCAASGFIFDPYGMGWYRQAPGKERELVAAITASGGTTYYADSVKGRFTISLDYANNTVYLQLNSLKPEDTAVYYCAAAVWYRGWYRYDYWGQGTKVTVSS", "polyreactivity (PSR sort gate)": "low polyreactivity"}, {"sequence": "QVQLVESGGGLVQAGGSLRLSCAASGFIFDQYAMGWYRQAPGKERELVATITSDGDTYYADSVKGRFTISRDNAKNTVYLQMNSLKPDDTAFYYFAVDPGPYTTGYEYWGQGTQLTVSS", "polyreactivity (PSR sort gate)": "low polyreactivity"}, {"sequence": "QVQLVESGGGLVQAGGSLRLSCAASGFIFDRYAMGWSRQAPGKERELVAAITGSGGSTYYADSVKGRFTISRDNAKNTVYFQMNSLKPEDTAVYYSAAESYDYFALFYVSIPYYYWGQGTQVTVSS", "polyreactivity (PSR sort gate)": "high polyreactivity"}, {"sequence": "QVQLVESGGGLVQAGGSLRLSCAASGFIFDSNAMGWYRQAPGKERELVAAISRRGGSTYYADSVKGRFTISRDNAKNTVYLQMNSLKPEDTAVYYCNAEYGSHVKYGYWGQGTQVTVSS", "polyreactivity (PSR sort gate)": "high polyreactivity"}, {"sequence": "QVQLVESGGGLVQAGGSLRLSCAASGFIFDSYAMGWYRQAPGKERELVAAISWSGGRTYYADSVKWRFTISRDNAKNTVYLQMNSLKPEDTAVYYCNVRTKLSTSYDYWGQGTQVTVSS", "polyreactivity (PSR sort gate)": "high polyreactivity"}, {"sequence": "QVQLVESGGGLVQAGGSLRLSCAASGFIFDSYAMGWYRQAPGKVRELVATISRRGSSTYYADSVKGRFTISRDNAKNTVYLQMNSLKPEDNAVYYCAAGSISYYYKLYWGGYWGQGTQVTVSS", "polyreactivity (PSR sort gate)": "high polyreactivity"}, {"sequence": "QVQLVESGGGLVQAGGSLRLSCAASGFIFDYNAMGWYRQAPGKERELVAAIDITGGSTYYADSVKGRFTISRDNAKNTVYLQMNSLKPEDTAVYYCNRPYYIWVYSGYSGYDYWGQGTQVTVSS", "polyreactivity (PSR sort gate)": "low polyreactivity"}, {"sequence": "QVQLVESGGGLVQAGGSLRLSCAASGFIFDYNAMGWYRQAPGKERELVAAISISGGGTYYADSVKGRFTISRDNAKNTVYLQMNSLKPEDTAVYYCATAGRYDAYDYWGQGTQVTVSS", "polyreactivity (PSR sort gate)": "low polyreactivity"}, {"sequence": "QVQLVESGGGLVQAGGSLRLSCAASGFIFDYYAMGWYRQAPGKERELVAAISRGGSTYYADSVKGRFTISRDNAKNTVYLQMKSLKPEDTAVYYCKAMSYHFWEFDYWGQGTQVTVSS", "polyreactivity (PSR sort gate)": "high polyreactivity"}, {"sequence": "QVQLVESGGGLVQAGGSLRLSCAASGFIFDYYAMGWYRQAPGKERELVAAITSRGGSTYYADSVKGRFTISRDNAKNTVYLQMNSLKPEDTAVYYCAARRRYAEYNYWGQGTQVTVSS", "polyreactivity (PSR sort gate)": "high polyreactivity"}, {"sequence": "QVQLVESGGGLVQAGGSLRLSCAASGFIFDYYAMGWYRQAPGKERELVAGISNGDTTYYADSVKGRFTISRDNAKNTVYLQMNSLKPEDTAVYYCNAKPFYWVLGGYDYWGQGTQVTVSS", "polyreactivity (PSR sort gate)": "low polyreactivity"}, {"sequence": "QVQLVESGGGLVQAGGSLRLSCAASGFIFDYYAMGWYRQAPGKERELVAGISWSGGSTYYADSVKGRFTISRDNAKNTVYLQMNSLKPEDTAVYYCNAEYSVPFYLYYYWGQGTQVTVSS", "polyreactivity (PSR sort gate)": "low polyreactivity"}, {"sequence": "QVQLVESGGGLVQAGGSLRLSCAASGFIFDYYAMGWYRQAPGKERELVATISSSGGSTYYADSVKGRFTISRDNAKNTVYLQMNSLKPEDTAVYYCATGYTWVADSWEYYYWGQGTQVTVSS", "polyreactivity (PSR sort gate)": "low polyreactivity"}, {"sequence": "QVQLVESGGGLVQAGGSLRLSCAASGFIFETNAMGWYRQAPGKERELVAAISSRGGSTYYADSVKGRFTISRDNAKNTVYLQMNSLKPEDTAVYYCAAKLVVSYGQEYDYWGQGTHVTVSS", "polyreactivity (PSR sort gate)": "low polyreactivity"}, {"sequence": "QVQLVESGGGLVQAGGSLRLSCAASGFIFEWNGMGWYRQAPGKERELVAAITWSGGSTYYADSVKGRFTISRDNAKNTVYLQMISLKPEDTAVYYCAADFPEYYLPYDNWGQGTQVTVSS", "polyreactivity (PSR sort gate)": "low polyreactivity"}, {"sequence": "QVQLVESGGGLVQAGGSLRLSCAASGFIFFAYAMGWYRQAPGKERELVAAISRTGGSTYYADSVKGRFTISRDNAKNTVYLEMNSLKPEDTAVYYCAAVVSRTYQWWTYDYWGQGTQVTVSS", "polyreactivity (PSR sort gate)": "high polyreactivity"}, {"sequence": "QVQLVESGGGLVQAGGSLRLSCAASGFIFFAYAMGWYRQAPGKERELVAAISSSGTRTYYADSVKGRFTISRDNAKNTVYLQMNSLKPEDTAVYYCARYIPVYTREREYNYWGQGTQVTVSS", "polyreactivity (PSR sort gate)": "high polyreactivity"}, {"sequence": "QVQLVESGGGLVQAGGSLRLSCAASGFIFFGEYVMGWYRQAPGKERELVAAITWSGGSTSYADSVKGRFTISRDNAKNTVYLQMNSLKPEDTAVYYCNAVSHFSTAIEFDYWGQGTQVTVSS", "polyreactivity (PSR sort gate)": "low polyreactivity"}, {"sequence": "QVQLVESGGGLVQAGGSLRLSCAASGFIFFGEYVRGWYRQAPRKEREFVAAITDSDGSTYYADSVKGRFTISRDNAKNTVYLQMNSLKPEDTAVYYCAAERVYSDIDYWGKGTQVTVSS", "polyreactivity (PSR sort gate)": "low polyreactivity"}, {"sequence": "QVQLVESGGGLVQAGGSLRLSCAASGFIFFGYAMGWYRQAPGKERELVAAITSGGSTYYADSVKGRFTISRDNAKNTVYLQMNSLKPEDTAVYYCAAVRWYGSKRYGYWGQGTQVTVSS", "polyreactivity (PSR sort gate)": "high polyreactivity"}, {"sequence": "QVQLVESGGGLVQAGGSLRLSCAASGFIFFINDMGWYRQAPGKERELVAAISWSGGSTYYADSVKGRFTISRDNAKNTVYLQMNSLKPEDTAVYYCAADWLIYDLSRFDYWGQGTQVTVSS", "polyreactivity (PSR sort gate)": "low polyreactivity"}, {"sequence": "QVQLVESGGGLVQAGGSLRLSCAASGFIFFPYTMGWYRQAPGKERELVAAITNGGSTSYADSVKGRFTISRDNAKNTVYLQMNSLKPEDTAVYYCAADLGRNLLHTFYYWGQGTQVTVSS", "polyreactivity (PSR sort gate)": "low polyreactivity"}, {"sequence": "QVQLVESGGGLVQAGGSLRLSCAASGFIFFVNAMGWYRQAPGKEREFVATITGSGGSTYYADSVKGRFTISRDNAKNTVYLQMYSLKPEDTAVYYCNAETYIDLRGKFPVEYDYWGQGTQVTVSS", "polyreactivity (PSR sort gate)": "low polyreactivity"}, {"sequence": "QVQLVESGGGLVQAGGSLRLSCAASGFIFGANAMGWYRPAPGKERELVAAITWSAGRTYYADSVKGRFTISRVNAKNTVYLKMNSLKREDSAVYYCAKQRARQSPEVGYWGQGTQVTVSS", "polyreactivity (PSR sort gate)": "high polyreactivity"}, {"sequence": "QVQLVESGGGLVQAGGSLRLSCAASGFIFGAYSMGWYRQAPGKERELVADITQNSGSTYYADSVKGRFTISRDNAKNTVYLQMNSLKPEDTAVYYCNAPPGTFQWQGHSDYWGQGTQVTVSS", "polyreactivity (PSR sort gate)": "low polyreactivity"}, {"sequence": "QVQLVESGGGLVQAGGSLRLSCAASGFIFGDYAMGWYRQAPGKERELVAAINYSGGSTYYADSVKGRFTISRDNAKNTGYLQMNSLKPEDTAVYYCAALIYGLVGWGQGTQVTVSS", "polyreactivity (PSR sort gate)": "low polyreactivity"}, {"sequence": "QVQLVESGGGLVQAGGSLRLSCAASGFIFGFYAMGWYIQAPGKERELVAAISGGGGRTNYADSVKGRFTISRDYAKNTVYLQMNSLNPEDTAVYYCAATPGRRRYRYYYWGQGTQVTVSS", "polyreactivity (PSR sort gate)": "high polyreactivity"}, {"sequence": "QVQLVESGGGLVQAGGSLRLSCAASGFIFGFYAMGWYRQAPGKERELVAAISWSGGSTYYADSVKGRFTISRDNAKNTVYLQMNSLKPEDTAGYYCAAYFYYLDDAVTYDYWGQGTQVTVSS", "polyreactivity (PSR sort gate)": "low polyreactivity"}, {"sequence": "QVQLVESGGGLVQAGGSLRLSCAASGFIFGGYAMGWYRQAPGKEREFVAAIRQRGGSTYYADSVKGRFTISRDNAKNTVYLQMNSLKPEDTAVYFCAATVRAVQASVRYGYWGQGTQVTVSS", "polyreactivity (PSR sort gate)": "high polyreactivity"}]}]}
